Source: the supplement of paper PMC12042874
± gives the uncertainty stated by the source.

Assay: amyloid nucleation score (Sup35N fusion, yeast selection) (log enrichment); library NNK3; higher = more nucleation; inactive = no reads after selection
How it was run: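 Sup35N fusions to peptides of 20 random codons were expressed in psi-negative yeast, induced 24 hours with 100 μM copper sulfate, and grown 7 days at 30°C on medium lacking adenine and uracil. Input and output plasmid inserts were sequenced by Illumina. The nucleation score is the DiMSum log enrichment of output over input reads, centred on the mode score of non-aggregating sequences. Sequences with under 100 input reads were excluded.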

Substance	amyloid nucleation score
FAVDFLCHVS	inactive
FCATRTKVGLHGYASCEDCG	-0.249 ± 0.48
FCEPDWNEMGMDFVRCGPSL	inactive
FCFQAFF	inactive
FCGGVAFMMVNVERVRTRRE	1.39 ± 0.15
FCKMVFLGTAVRCVVKLQSV	inactive
FCLMHRRWMVVCACIYRWLK	inactive
FCLPICFD	inactive
FCMGLHSWNSNGRFCAVCTY	inactive
FCRIAVMFKSNQELYRMDNG	inactive
FCRQCNIVLFDQSVSL	1.87 ± 0.11
FCTVNH	inactive
FCYGSFGGLRELYCC	inactive
FDFESRKLVVGICGCSQAGL	inactive
FDIIVQITYHVWNMNVHF	0.932 ± 0.1
FDLGGLLPL	inactive
FDNFADNRLNKVSYKYQT	1.27 ± 0.12
FDNKQGSFLKVLTFNFARVA	inactive
FDSLFYCGYTYHYQVARKFR	inactive
FDTVVLCWVIGIRIGPHNAL	inactive
FEIECNNGSGASTRLTSRIN	inactive
FEMPLMWYCGGFYSSPLLCK	inactive
FEYEKMLKAYGEGVIGSWLF	inactive
FEYLSMYELGISVE	inactive

Substance	amyloid nucleation score
FEYLSMYELGISVMSTAH	inactive
FFAILHLRVNARMCYGNGAY	0.435 ± 0.48
FFALPDLALYNFFFCNPHYL	2.27 ± 0.064
FFASRENPSFHFVSFWTYTW	inactive
FFERSR	inactive
FFEWRTGLFVLWLSEVTSLM	inactive
FFGWSSRVSSACAVPVEINS	inactive
FFILFMRRLDW	0.323 ± 0.22
FFIYKFYPFRGISLSAVRIR	inactive
FFKYYG	inactive
FFLSTTGSMPHFPFKVSSSF	0.088 ± 0.24
FFLVLNSACME	0.058 ± 0.36
FFNDSYIRYFSCM	0.02 ± 0.77
FFNSVMIYGWS	0.07 ± 0.3
FFSAFID	inactive
FFSISFS	inactive
FFSLLT	inactive
FFSTLVYNRRIVCWFRSGR	-1.49 ± 2.5
FFVFSRLVYPWCGMFFLSLK	inactive
FFVWKHLLMRFRYALACTLM	inactive
FGAKR	0.909 ± 0.18
FGLEFWTYTSIRFWLEYKPH	0.972 ± 0.099
FGMSILVFFTVDRSLET	inactive
FGRIGSYWTMVQ	inactive

Substance	amyloid nucleation score
FGSFQMGLWFVMNEVDQVKG	inactive
FGTHFIESSNVNNNTPVVSP	inactive
FGTNVPISNLIKEVLYIRYS	inactive
FGYHYWVSATCMSLALSWLT	inactive
FGYNWDCCRYMHDPRGLVTT	inactive
FHCSDYADVHSILTLLLVHT	inactive
FHQLGICKFKA	-0.387 ± 0.88
FHTFSVCVGRGTMYYRALEE	0.277 ± 0.23
FHTSKLHRFPHLK	inactive
FIIAWWCNVSVDKTSERHYV	1.55 ± 0.079
FIIISIYGCIIVRWTKRAWG	inactive
FILQGFPE	inactive
FILSVWLYTS	inactive
FIPYYRCDQMLSGILVRFFS	inactive
FIRVFYSCIYVDKVLCEGRL	1.5 ± 0.11
FISDRQSASYPWVQFWPE	0.206 ± 0.7
FISSLSRSFL	inactive
FITGCSYVAYFMIAA	inactive
FIVPWLFICRVVRNCVDSAV	inactive
FIVVQGIAPCGFTS	inactive
FIYNVDVHCASSVNIGWGQK	2.83 ± 0.08
FKCAADCVFLALYYMDGWKS	inactive
FKLDSMCRLKRAAN	inactive
FKRGTCISSSNYNIYCYWKC	inactive

Substance	amyloid nucleation score
FKRLLARV	-0.362 ± 0.98
FKSLLSRISHFKFASGWYVH	inactive
FKVSFIWCCNFKMSCGAYER	0.446 ± 0.4
FLAMSSASMFRYFKPVASSE	2.91 ± 0.066
FLAVLNLPGCGMDMRNLINL	inactive
FLCIVSAYF	inactive
FLCLSKGTGVAISKMSQN	inactive
FLCMLVYI	1.23 ± 0.11
FLDFQLFLCTHYLGRI	inactive
FLDSLYKRGCNKFGQLWR	inactive
FLIKNMY	inactive
FLNCSSQKNATPHILFNGGM	inactive
FLNIGYLNSRYNFLRNSVLV	inactive
FLNSKGFTIAGYKNSKWGSR	inactive
FLPDSFESYEKEVHTMDESS	inactive
FLRCIC	inactive
FLRFWARSNPGTWLIVHGMG	-0.69 ± 1.4
FLRGLVK	inactive
FLRKFRLTLIYVTRASWLGG	inactive
FLRKGYFNSTSFTDALGGNL	-1.26 ± 1.8
FLRMHVRGFDTFRARQ	inactive
FLRRLSRKTKDMDSSRGMCC	inactive
FLSFTSRNLTYFCDCRFSLI	inactive
FLSVECLRAMTWCQLLDAGS	inactive

Substance	amyloid nucleation score
FLTAKKSEFERTLEFRLWWC	inactive
FLTVIGLYNLSDGPCCK	1.79 ± 0.06
FLTWRIGVVS	inactive
FLVICCCWD	2.08 ± 0.062
FLWLKHSQSHVRERL	inactive
FLWMSAEGLSK	inactive
FLYDVFPSPGLMMVLWFGLC	inactive
FMEYFTCGV	inactive
FMGDRLKEAGDRTLYDQKVG	inactive
FMGFFYNFYVPKLKSSVHNE	0.303 ± 0.34
FMGGIFAVFTRILVHSIWYS	inactive
FMGSGQVVNTRASGIMGLFF	inactive
FMISDNMAQCMERGYRAEVF	inactive
FMIYYLGLFRR	inactive
FMKCDTTSAAGCRRSSSRDK	inactive
FMLRFPLPPSKIHVRYMPTC	inactive
FMSSFISMYFASAFHYAMWH	inactive
FMVILMRAISMSKIKSILYH	inactive
FMYVRCQIVADTCFGIASWG	-0.032 ± 0.82
FNANI	0.12 ± 0.34
FNDLSAVFYLQGLKLDL	inactive
FNFNLKFKTFGKMYFTGPES	0.628 ± 0.25
FNHSRYDSVFWFVVHPSYEG	inactive
FNIHSQIAFLFLCGYLESTV	1.94 ± 0.075

Substance	amyloid nucleation score
FNRLDTNTTSGPRTGTTLEM	inactive
FNVYMIITNFLDPL	2.64 ± 0.062
FNYMCNLNVCRNIILMTLEL	2.69 ± 0.07
FPCSGPACYIYYTLHGLSLG	inactive
FPFKV	inactive
FPIDC	0.082 ± 0.58
FQESVIWKVYRNNNYRSLTV	inactive
FQNDDVTS	inactive
FQPSSASPIGWIGMSAFDSW	inactive
FRFASYRSYLIVMP	inactive
FRFSMSL	inactive
FRFTFLMRNML	inactive
FRFWPFSPICNWY	inactive
FRFYLCDDFMCNVLHYQPRN	3.19 ± 0.073
FRILIIFSVYGSMISHLP	inactive
FRPAN	-0.286 ± 0.78
FRQLQGTSMLYLATPWS	inactive
FRSKLTW	inactive
FRVLYDCGTGYAVCYAMEVK	inactive
FRVVNMSWCAPNLTLRFKYL	inactive
FRYLNLKKDD	inactive
FRYPLNYN	inactive
FRYVHIHLRYQPGF	inactive
FSALMIY	0.015 ± 0.32

Substance	amyloid nucleation score
FSCIKTRMVGYSLRLNQFVD	inactive
FSFNAG	inactive
FSFPMEIWKGFVYRTA	3.16 ± 0.081
FSILAFMSDLLS	inactive
FSIPCDFDDNFATQELS	inactive
FSLFLTLFHFFHTRLAACLL	inactive
FSLVAKMSFESLATNRWDSR	1.41 ± 0.15
FSLVMDCI	inactive
FSMSPSTTYRAFGHYSPGQH	-0.074 ± 0.5
FSNSSGNGEGDLRENLQNKM	inactive
FSQWT	inactive
FSRTSCVGDCYCGAYNRLSG	2.02 ± 0.095
FSSQYMSCIVRRHGGNLDAC	0.033 ± 0.39
FSSRKSLCGLDLKECFTSVE	inactive
FSTVKQLYCFMTPIYASFNS	-0.531 ± 1
FSTVTYQGVTALVNQSSVTT	inactive
FSVHRGLLFITQGSDVAEHV	inactive
FSYCG	inactive
